In patent US6875741:
No end group written: not given here.

Biological target: soluble human insulin receptor-immunoglobulin heavy chain chimera (human), P06213
Experiment: ratio of IC50 on rhIGF-1R (TR-FRET vs b-20E2) to IC50 on sIR-Fc (FP vs FITC-RP9)
Conditions: remark: other sources report otherwise

Binding Ratio IGF-1R/IR | Binder
0.19 | CWARPCGDAANFYDWFVQQAS [C1 (D112)]

Biological target: soluble human insulin receptor-immunoglobulin heavy chain chimera (human) (UniProt P06213)
Experiment: phage ELISA over milk background
Conditions: not given

ratio over background | Binder
1.9 | GCVVEWQKWHGASDPFYHKLSELGGCS [B6Hα-3-F10-IR]
1.7 | GGTKAVAKVGTRDDPFYHKLSELLQGS [B6Hα-4-G8-IR]
1.6 | RGMKEEVLVGGSTDPFYHKLSELLQGS [B6Hα-3-F11-IR]
1.9 | RGAVAGFHDQFYDWFDRQVSRVHKFG [H2CA-4-H9-IGFR]
1.7 | RCEEKQAEVGPSSDPFYHKMSELLGCR [B6Hα-3-E9-IR]
1.8 | MMVVDGFYDALHQLVVAQSLG [20E2A-3-D10-IGFR]
1.8 | QPAPDGFYSALMKLIGRGGVS [20E2B-3-C8-IGFR]
1.6 | LQPCSGFYECIERLIGVKLSG [20E2Bβ-4-G7-IR]
2 | YRGMLVLGRISGGAGKAASERPARIGQKVSAVNFYDWFV [A6L-0-H3-IR]
1.8 | IIGGFYSYFNSVLRLGT [NNRPγ-4-A1-IR]
1.9 | QPDHSYFYSLLQELVGSEERL [20E2B-4-F9-IGFR]
1.6 | GGTEVDFYRALERLVRGQLGL [20E2B-3-D8-IGFR]
1.8 | YRGMLVLGRSSDGAGKVAFERPARIGQTVFAVNFYDWFV [A6L-0-E6-IR]
1.5 | LRIANLFYQRLWDLAFGGGG [20E2B-3-E8-IGFR]
1.5 | SSYGCDGFYLMLFSLGLVASQELEC [20C-3-A1-IGFR]

Biological target: soluble IGF-1R (UniProt P08069)
Experiment: phage ELISA; IGF-1R ratio over background divided by IR ratio
Conditions: not given

IGF-1R/IR ratio comparison | Binder
13.1 | DYKDLSCLAYSRHGIWRPSTDLGLGRSVGEGSVSTRWRGYDWFEAAAGAP (peptide, not shown: large carriers) [40F-4-D1-IGFR]
2 | DYKDQSGSGDFYDWLSRLIRGNGDGAAAGAP (peptide, not shown: large carriers) [20E2Bβ-3-C7-IR]
1.9 | DYKDCGAKMTGTPNDPFYHKLSELLQRGAAAGAP (peptide, not shown: large carriers) [B6Hα-3-E6-IR]
3.1 | DYKDSRVAATKEKRPSDDPFYHKLSELLQGSAAAGAP (peptide, not shown: large carriers) [B6Hα-3-F7-IR]
2.6 | DYKDMNVFVSFYDAIDQLVCQRIGCAAAGAP (peptide, not shown: large carriers) [20E2A-4-G11-IGFR]
1.4 | DYKDAETSAQVGWQRLWSVWPGDHWSTLDPFYHKLSELLRESGAAAAGAP (peptide, not shown: large carriers) [B6L-3-G5-IR]
1.8 | DYKDAGTPAQVGXNRLWSVWPGEHWNTVDPFYNKLSELLRESGAAAAGAP (peptide, not shown: large carriers, not fully specified; X: residue not identified in the source) [B6L-4-A7-IR]
2.9 | DYKDRCGDEEGWQENRRDDPFYHKLSELFGGCAAAGAP (peptide, not shown: large carriers) [B6Hα-3-E5-IR]
1.4 | DYKDAGSVTSFYDAMEQLVATGTSAAAAGAP (peptide, not shown: large carriers) [20E2A-3-A4-IGFR]
1.8 | DYKDCSMAAVAEAGDDDDPFYHKLSELCQGSAAAGAP (peptide, not shown: large carriers) [B6Hα-3-F1-IR]
2.9 | DYKDGCITAENGAGDPFYHKLSELGGCSAAAGAP (peptide, not shown: large carriers) [B6Hα-1-B3-IR]
1.4 | DYKDVDTPAQVGWNRLWSVGPGEHWYTDDPFYHXLSELLRESGAAAAGAP (peptide, not shown: large carriers, not fully specified; X: residue not identified in the source) [B6L-3-G6-IR]

Biological target: soluble human insulin receptor-immunoglobulin heavy chain chimera (human) (UniProt P06213)
Experiment: phage ELISA ratios compared
Conditions: not given

IR/IGF-1R ratio comparison | Binder
0.2 | GCVVEWQKWHGASDPFYHKLSELGGCS [B6Hα-3-F10-IR]
0.3 | GGTKAVAKVGTRDDPFYHKLSELLQGS [B6Hα-4-G8-IR]
0.1 | RGMKEEVLVGGSTDPFYHKLSELLQGS [B6Hα-3-F11-IR]
0.3 | RGAVAGFHDQFYDWFDRQVSRVHKFG [H2CA-4-H9-IGFR]
0.1 | RCEEKQAEVGPSSDPFYHKMSELLGCR [B6Hα-3-E9-IR]
0.3 | MMVVDGFYDALHQLVVAQSLG [20E2A-3-D10-IGFR]
0.1 | QPAPDGFYSALMKLIGRGGVS [20E2B-3-C8-IGFR]
0.1 | LQPCSGFYECIERLIGVKLSG [20E2Bβ-4-G7-IR]
0.1 | YRGMLVLGRISGGAGKAASERPARIGQKVSAVNFYDWFV [A6L-0-H3-IR]
0.2 | IIGGFYSYFNSVLRLGT [NNRPγ-4-A1-IR]
0.1 | QPDHSYFYSLLQELVGSEERL [20E2B-4-F9-IGFR]
0.1 | GGTEVDFYRALERLVRGQLGL [20E2B-3-D8-IGFR]
0.1 | YRGMLVLGRSSDGAGKVAFERPARIGQTVFAVNFYDWFV [A6L-0-E6-IR]
0.1 | LRIANLFYQRLWDLAFGGGG [20E2B-3-E8-IGFR]
0.1 | SSYGCDGFYLMLFSLGLVASQELEC [20C-3-A1-IGFR]

Biological target: soluble IGF-1R (UniProt P08069)
Experiment: phage ELISA; A405 on IGF-1R / A405 on non-fat milk
Conditions: not given

ratio over background (fold over background) | Binder
4.6 | DYKDLSCLAYSRHGIWRPSTDLGLGRSVGEGSVSTRWRGYDWFEAAAGAP (peptide, not shown: large carriers) [40F-4-D1-IGFR]
3.1 | DYKDQSGSGDFYDWLSRLIRGNGDGAAAGAP (peptide, not shown: large carriers) [20E2Bβ-3-C7-IR]
3 | DYKDGLDHSDAVGVHLGFAWPAQARGRWEAGGLEDTWAGYDWLAAAGAP (peptide, not shown: large carriers) [40F-4-B1-IGFR]
2.3 | DYKDCGAKMTGTPNDPFYHKLSELLQRGAAAGAP (peptide, not shown: large carriers) [B6Hα-3-E6-IR]
3.1 | DYKDSRVAATKEKRPSDDPFYHKLSELLQGSAAAGAP (peptide, not shown: large carriers) [B6Hα-3-F7-IR]
3.3 | DYKDMNVFVSFYDAIDQLVCQRIGCAAAGAP (peptide, not shown: large carriers) [20E2A-4-G11-IGFR]
2 | DYKDAETSAQVGWQRLWSVWPGDHWSTLDPFYHKLSELLRESGAAAAGAP (peptide, not shown: large carriers) [B6L-3-G5-IR]
3.4 | DYKDAGTPAQVGXNRLWSVWPGEHWNTVDPFYNKLSELLRESGAAAAGAP (peptide, not shown: large carriers, not fully specified; X: residue not identified in the source) [B6L-4-A7-IR]
2.9 | DYKDRCGDEEGWQENRRDDPFYHKLSELFGGCAAAGAP (peptide, not shown: large carriers) [B6Hα-3-E5-IR]
3 | DYKDGHYFGSFYDAIDQLVAGMLPGAAAGAP (peptide, not shown: large carriers) [20E2A-3-A3-IGFR]
2.5 | DYKDAGSVTSFYDAMEQLVATGTSAAAAGAP (peptide, not shown: large carriers) [20E2A-3-A4-IGFR]
2.4 | DYKDCSMAAVAEAGDDDDPFYHKLSELCQGSAAAGAP (peptide, not shown: large carriers) [B6Hα-3-F1-IR]
3 | DYKDSSETAKMVTGTRDDPFYHKLSELVQGSAAAGAP (peptide, not shown: large carriers) [B6Hα-2-D8-IR]
3.2 | DYKDGCITAENGAGDPFYHKLSELGGCSAAAGAP (peptide, not shown: large carriers) [B6Hα-1-B3-IR]
2.5 | DYKDVDTPAQVGWNRLWSVGPGEHWYTDDPFYHXLSELLRESGAAAAGAP (peptide, not shown: large carriers, not fully specified; X: residue not identified in the source) [B6L-3-G6-IR]

Biological target: insulin receptor prepared according to Bass et al., 1996 (soluble IR) (human) (UniProt P06213)
Experiment: phage ELISA; A405 on IR / A405 on non-fat milk
Conditions: not given

ratio over background (fold over background) | Binder
0.3 | DYKDLSCLAYSRHGIWRPSTDLGLGRSVGEGSVSTRWRGYDWFEAAAGAP (peptide, not shown: large carriers) [40F-4-D1-IGFR]
1.5 | DYKDQSGSGDFYDWLSRLIRGNGDGAAAGAP (peptide, not shown: large carriers) [20E2Bβ-3-C7-IR]
0.2 | DYKDGLDHSDAVGVHLGFAWPAQARGRWEAGGLEDTWAGYDWLAAAGAP (peptide, not shown: large carriers) [40F-4-B1-IGFR]
1.2 | DYKDCGAKMTGTPNDPFYHKLSELLQRGAAAGAP (peptide, not shown: large carriers) [B6Hα-3-E6-IR]
1 | DYKDSRVAATKEKRPSDDPFYHKLSELLQGSAAAGAP (peptide, not shown: large carriers) [B6Hα-3-F7-IR]
1.3 | DYKDMNVFVSFYDAIDQLVCQRIGCAAAGAP (peptide, not shown: large carriers) [20E2A-4-G11-IGFR]
1.4 | DYKDAETSAQVGWQRLWSVWPGDHWSTLDPFYHKLSELLRESGAAAAGAP (peptide, not shown: large carriers) [B6L-3-G5-IR]
1.9 | DYKDAGTPAQVGXNRLWSVWPGEHWNTVDPFYNKLSELLRESGAAAAGAP (peptide, not shown: large carriers, not fully specified; X: residue not identified in the source) [B6L-4-A7-IR]
1 | DYKDRCGDEEGWQENRRDDPFYHKLSELFGGCAAAGAP (peptide, not shown: large carriers) [B6Hα-3-E5-IR]
1.5 | DYKDGHYFGSFYDAIDQLVAGMLPGAAAGAP (peptide, not shown: large carriers) [20E2A-3-A3-IGFR]
1.8 | DYKDAGSVTSFYDAMEQLVATGTSAAAAGAP (peptide, not shown: large carriers) [20E2A-3-A4-IGFR]
1.3 | DYKDCSMAAVAEAGDDDDPFYHKLSELCQGSAAAGAP (peptide, not shown: large carriers) [B6Hα-3-F1-IR]
1 | DYKDSSETAKMVTGTRDDPFYHKLSELVQGSAAAGAP (peptide, not shown: large carriers) [B6Hα-2-D8-IR]
1.1 | DYKDGCITAENGAGDPFYHKLSELGGCSAAAGAP (peptide, not shown: large carriers) [B6Hα-1-B3-IR]
1.8 | DYKDVDTPAQVGWNRLWSVGPGEHWYTDDPFYHXLSELLRESGAAAAGAP (peptide, not shown: large carriers, not fully specified; X: residue not identified in the source) [B6L-3-G6-IR]

Biological target: insulin receptor prepared according to Bass et al., 1996 (soluble IR) (human) (UniProt P06213)
Experiment: phage ELISA; IR ratio over background divided by IGF-1R ratio
Conditions: not given

IR/IGF-1R ratio comparison | Binder
0.1 | DYKDLSCLAYSRHGIWRPSTDLGLGRSVGEGSVSTRWRGYDWFEAAAGAP (peptide, not shown: large carriers) [40F-4-D1-IGFR]
0.5 | DYKDQSGSGDFYDWLSRLIRGNGDGAAAGAP (peptide, not shown: large carriers) [20E2Bβ-3-C7-IR]
0.5 | DYKDCGAKMTGTPNDPFYHKLSELLQRGAAAGAP (peptide, not shown: large carriers) [B6Hα-3-E6-IR]
0.3 | DYKDSRVAATKEKRPSDDPFYHKLSELLQGSAAAGAP (peptide, not shown: large carriers) [B6Hα-3-F7-IR]
0.4 | DYKDMNVFVSFYDAIDQLVCQRIGCAAAGAP (peptide, not shown: large carriers) [20E2A-4-G11-IGFR]
0.7 | DYKDAETSAQVGWQRLWSVWPGDHWSTLDPFYHKLSELLRESGAAAAGAP (peptide, not shown: large carriers) [B6L-3-G5-IR]
0.3 | DYKDRCGDEEGWQENRRDDPFYHKLSELFGGCAAAGAP (peptide, not shown: large carriers) [B6Hα-3-E5-IR]
0.5 | DYKDCSMAAVAEAGDDDDPFYHKLSELCQGSAAAGAP (peptide, not shown: large carriers) [B6Hα-3-F1-IR]
0.3 | DYKDGCITAENGAGDPFYHKLSELGGCSAAAGAP (peptide, not shown: large carriers) [B6Hα-1-B3-IR]
